{"source": "patent US20260266838A1", "about": "(NORDIC BIOSCIENCE A S, published 2026)", "binders": {"B1": {"name": "Selection peptide VDTLPQKPRE (peptide)", "peptide": "VDTLPQKPRE", "modifications": "not fully specified", "notes": "Synthetic peptide (Genscript); the end 75 follows from the ten residues; also called calibrator peptide"}}, "target": "T1, monoclonal antibody (mAb) specific for the N-terminus amino acid sequence …, HRP-labeled, employed in the … (horseradish peroxidase (HRP) label, site not stated)", "T1 construct": "Mouse IgG2b / kappa from a hybridoma; also called HRP-labeled mAb; selected mAb", "T1 sequence (VH, as listed by the source, chain 1 of 2)": "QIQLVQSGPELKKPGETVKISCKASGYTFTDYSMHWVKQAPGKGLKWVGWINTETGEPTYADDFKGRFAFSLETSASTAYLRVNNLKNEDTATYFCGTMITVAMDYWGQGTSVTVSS", "T1 sequence (VL, as listed by the source, chain 2 of 2)": "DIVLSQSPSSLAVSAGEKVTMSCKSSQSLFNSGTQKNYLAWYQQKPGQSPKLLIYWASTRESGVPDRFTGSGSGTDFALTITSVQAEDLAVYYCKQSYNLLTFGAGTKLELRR", "assay": "competitive ELISA: selection peptide against coated …-K-biotin for the HRP-labeled mAb; 10 independent runs", "procedure": "All incubation steps were performed in the dark with constant shaking at 300 rpm and followed by five times wash of the wells using washing buffer ([…], 50 mM NaCl, pH 7.2). A 10-point calibration curve was plotted using a 4-parameter logistic curve fit of the selection peptide dilutions. Data were analyzed using the SoftMax Pro version 7.1.0 software (Molecular Devices).\nAntibody specificity was evaluated using synthetic peptides and calculated as percentage of signal inhibition of two-fold diluted selection and deselection peptides (Table 1). Unspecific binding was tested using a nonsense screening peptide (biotin-[…] (SEQ ID NO: 23)). IC50 (half-maximal inhibition concentration) was determined from 10 independent runs of the 10-point calibration curve. The technical lower limit of detection (LLOD) was calculated as the mean signal of 60 determinations of a blank sample (i.e., assay buffer) plus 3× standard deviation (SD). The upper limit of quantification (ULOQ) was determined from 10 independent runs of the calibration curve and determined as the highest concentration of selection peptide determined with a recovery percentage within 100±20% of the nominal concentration and a CV<20%. […] Two-fold dilutions of four human serum samples quantified in three independent runs were used to evaluate assay linearity, calculated as percentage of recovery of the undiluted sample. […]", "note": "Ends that are not written are not given here."}
{"binder": "B1", "values": [{"measurement": "IC50", "result": 0.0369, "unit": "µg/mL"}]}
